Measurements: patent US20190359662A1

Legend:
Experiment in all cases: cell-based or functional assay
[1] = molecular target: hNav1.6 (human) (UniProt Q9UQD0)
[2] = molecular target: hNav1.5 (human) (UniProt Q14524)
[3] = molecular target: hNav1.7 (human) (UniProt Q15858)
[4] = molecular target: hNav1.8 (human) (UniProt Q9Y5Y9)
[5] = molecular target: hNav1.2 (human) (UniProt Q99250)
[6] = molecular target: hNav1.3 (human) (UniProt Q9NY46)
[7] = molecular target: hNav1.9 (human) (UniProt Q9UI33)
[8] = molecular target: hNav1.1 (human) (UniProt P35498)
[9] = molecular target: hNav1.4 (human) (UniProt P35499)

hNav1.3 (human), sequence (Q9NY46 whole entry): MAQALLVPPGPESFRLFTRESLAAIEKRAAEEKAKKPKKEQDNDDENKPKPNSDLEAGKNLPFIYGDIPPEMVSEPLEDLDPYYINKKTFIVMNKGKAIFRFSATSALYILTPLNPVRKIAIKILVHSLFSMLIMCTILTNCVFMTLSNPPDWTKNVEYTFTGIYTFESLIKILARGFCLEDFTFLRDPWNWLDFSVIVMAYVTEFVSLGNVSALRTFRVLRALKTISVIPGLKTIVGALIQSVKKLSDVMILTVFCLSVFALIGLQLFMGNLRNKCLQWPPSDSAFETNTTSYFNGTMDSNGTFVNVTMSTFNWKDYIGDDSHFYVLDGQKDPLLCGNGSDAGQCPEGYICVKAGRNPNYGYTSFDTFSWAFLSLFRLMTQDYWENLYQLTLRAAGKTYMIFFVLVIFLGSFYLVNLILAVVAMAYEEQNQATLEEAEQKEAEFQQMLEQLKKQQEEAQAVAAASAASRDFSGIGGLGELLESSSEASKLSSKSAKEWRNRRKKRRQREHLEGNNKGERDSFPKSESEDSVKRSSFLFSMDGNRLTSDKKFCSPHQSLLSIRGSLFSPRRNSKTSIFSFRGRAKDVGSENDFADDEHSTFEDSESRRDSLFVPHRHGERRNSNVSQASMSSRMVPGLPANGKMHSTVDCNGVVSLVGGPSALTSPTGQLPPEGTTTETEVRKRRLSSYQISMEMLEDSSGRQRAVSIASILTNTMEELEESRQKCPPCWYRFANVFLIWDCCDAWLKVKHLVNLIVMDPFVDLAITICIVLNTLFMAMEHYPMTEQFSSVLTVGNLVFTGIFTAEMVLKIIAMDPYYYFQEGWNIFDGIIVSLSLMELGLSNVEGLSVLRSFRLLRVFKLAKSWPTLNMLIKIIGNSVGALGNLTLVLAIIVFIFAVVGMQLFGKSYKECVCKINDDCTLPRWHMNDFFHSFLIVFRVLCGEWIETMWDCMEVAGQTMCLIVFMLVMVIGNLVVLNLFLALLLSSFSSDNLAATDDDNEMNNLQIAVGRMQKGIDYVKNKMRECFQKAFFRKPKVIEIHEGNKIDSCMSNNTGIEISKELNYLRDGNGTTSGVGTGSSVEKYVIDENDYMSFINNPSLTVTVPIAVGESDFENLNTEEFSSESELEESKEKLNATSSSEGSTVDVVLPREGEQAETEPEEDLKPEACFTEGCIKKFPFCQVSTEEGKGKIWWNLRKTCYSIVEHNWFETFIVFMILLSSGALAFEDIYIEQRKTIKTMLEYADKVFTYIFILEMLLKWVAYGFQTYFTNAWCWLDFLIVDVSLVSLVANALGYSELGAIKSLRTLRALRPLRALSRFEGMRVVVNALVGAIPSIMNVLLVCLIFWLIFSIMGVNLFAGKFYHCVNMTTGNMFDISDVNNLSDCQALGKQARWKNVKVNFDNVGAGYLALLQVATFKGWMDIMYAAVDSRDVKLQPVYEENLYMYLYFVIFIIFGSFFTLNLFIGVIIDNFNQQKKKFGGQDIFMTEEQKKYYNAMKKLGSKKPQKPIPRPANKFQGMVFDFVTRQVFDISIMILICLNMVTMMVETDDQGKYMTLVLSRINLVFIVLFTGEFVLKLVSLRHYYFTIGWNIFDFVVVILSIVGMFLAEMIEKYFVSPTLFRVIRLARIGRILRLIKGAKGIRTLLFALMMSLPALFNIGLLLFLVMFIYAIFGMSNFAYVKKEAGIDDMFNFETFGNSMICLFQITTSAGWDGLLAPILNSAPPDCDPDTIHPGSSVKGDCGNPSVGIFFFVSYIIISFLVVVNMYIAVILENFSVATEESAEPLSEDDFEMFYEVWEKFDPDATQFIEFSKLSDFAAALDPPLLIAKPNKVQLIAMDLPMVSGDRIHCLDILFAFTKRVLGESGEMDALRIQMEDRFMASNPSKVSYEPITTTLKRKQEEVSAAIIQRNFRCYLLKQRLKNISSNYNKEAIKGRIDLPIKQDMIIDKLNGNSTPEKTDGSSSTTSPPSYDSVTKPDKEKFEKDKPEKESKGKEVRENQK
hNav1.5 (human), sequence (Q14524 whole entry): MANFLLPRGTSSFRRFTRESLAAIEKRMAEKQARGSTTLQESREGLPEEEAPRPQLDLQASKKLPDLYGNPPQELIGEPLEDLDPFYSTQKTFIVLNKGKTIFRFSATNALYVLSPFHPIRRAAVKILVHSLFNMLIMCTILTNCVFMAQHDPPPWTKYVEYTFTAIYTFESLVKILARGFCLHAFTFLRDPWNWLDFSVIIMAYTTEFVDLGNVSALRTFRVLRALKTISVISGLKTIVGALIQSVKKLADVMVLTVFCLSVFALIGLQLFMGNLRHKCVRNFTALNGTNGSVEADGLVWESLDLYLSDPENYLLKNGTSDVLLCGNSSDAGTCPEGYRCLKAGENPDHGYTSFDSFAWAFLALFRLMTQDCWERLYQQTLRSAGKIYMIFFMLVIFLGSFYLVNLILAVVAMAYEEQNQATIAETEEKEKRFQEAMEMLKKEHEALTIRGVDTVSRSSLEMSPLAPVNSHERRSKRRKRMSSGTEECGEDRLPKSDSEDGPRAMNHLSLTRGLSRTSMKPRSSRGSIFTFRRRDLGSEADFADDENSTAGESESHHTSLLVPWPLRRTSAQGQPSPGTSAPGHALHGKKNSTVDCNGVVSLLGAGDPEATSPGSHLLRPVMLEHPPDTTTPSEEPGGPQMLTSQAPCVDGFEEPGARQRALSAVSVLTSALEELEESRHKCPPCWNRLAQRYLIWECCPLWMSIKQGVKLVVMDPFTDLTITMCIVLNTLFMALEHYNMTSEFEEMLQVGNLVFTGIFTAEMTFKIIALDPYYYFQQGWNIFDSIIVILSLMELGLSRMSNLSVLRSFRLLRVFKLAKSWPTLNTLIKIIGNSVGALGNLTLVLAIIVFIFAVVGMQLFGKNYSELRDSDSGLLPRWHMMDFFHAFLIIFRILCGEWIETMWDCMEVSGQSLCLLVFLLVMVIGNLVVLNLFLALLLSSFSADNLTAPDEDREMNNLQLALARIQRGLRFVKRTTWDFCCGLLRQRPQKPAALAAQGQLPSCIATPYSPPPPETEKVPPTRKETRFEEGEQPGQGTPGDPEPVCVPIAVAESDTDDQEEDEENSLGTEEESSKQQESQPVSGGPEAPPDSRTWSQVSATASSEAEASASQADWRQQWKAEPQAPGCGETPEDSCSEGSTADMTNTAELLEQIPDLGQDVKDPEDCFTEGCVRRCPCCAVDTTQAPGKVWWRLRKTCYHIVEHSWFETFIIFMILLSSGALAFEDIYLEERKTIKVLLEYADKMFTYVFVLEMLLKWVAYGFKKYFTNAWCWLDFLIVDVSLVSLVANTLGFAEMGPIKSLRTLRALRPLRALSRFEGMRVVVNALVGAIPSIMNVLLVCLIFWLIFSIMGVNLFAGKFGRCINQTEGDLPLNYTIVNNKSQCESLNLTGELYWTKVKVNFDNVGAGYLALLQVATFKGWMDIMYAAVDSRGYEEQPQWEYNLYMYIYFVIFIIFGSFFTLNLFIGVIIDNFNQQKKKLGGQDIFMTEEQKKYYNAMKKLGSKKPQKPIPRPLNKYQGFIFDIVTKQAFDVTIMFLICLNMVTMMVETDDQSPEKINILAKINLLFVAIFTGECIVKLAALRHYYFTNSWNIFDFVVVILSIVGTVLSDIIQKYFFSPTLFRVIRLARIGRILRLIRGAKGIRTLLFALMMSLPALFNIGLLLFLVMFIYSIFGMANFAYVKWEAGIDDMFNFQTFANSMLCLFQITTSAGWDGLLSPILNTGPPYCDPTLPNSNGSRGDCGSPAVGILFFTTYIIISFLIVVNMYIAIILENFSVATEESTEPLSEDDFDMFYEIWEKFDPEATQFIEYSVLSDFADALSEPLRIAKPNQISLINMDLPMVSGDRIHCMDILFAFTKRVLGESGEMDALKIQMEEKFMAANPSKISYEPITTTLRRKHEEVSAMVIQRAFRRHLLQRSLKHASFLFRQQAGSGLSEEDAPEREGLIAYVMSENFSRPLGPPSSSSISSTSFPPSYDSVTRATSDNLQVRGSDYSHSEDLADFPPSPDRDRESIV

Pnc1a (peptide)
pIC50, automated patch clamp [1]: 6.89 M | pIC50, membrane potential assay [1]: 4.73 M | pIC50, automated patch clamp [2]: 6.01 M | pIC50, membrane potential assay [2]: 4.07 M | pIC50, automated patch clamp [3]: > 9.04 M | pIC50, automated patch clamp [4]: 4.32 M | pIC50, membrane potential assay [4]: 4.58 M | pIC50, automated patch clamp [5]: 6.9 M | pIC50, membrane potential assay [5]: 5.53 M | pIC50, automated patch clamp [6]: 6.68 M | pIC50, membrane potential assay [6]: 5.09 M | pIC50, automated patch clamp [7]: 5.63 M | pIC50, automated patch clamp [8]: 7.43 M | pIC50, membrane potential assay [8]: 4.88 M | pIC50, automated patch clamp [9]: 6.8 M | pIC50, membrane potential assay [9]: 4.95 M
